Experimental data published in patent US6660837 (KIRIN BEER, dated 2003).

What was measured:
[1] = target: T1, LexA DNA binding domain fused to PKNN1 (amino acid sequence 1-540 of PKN), pBTM/PKNN1 (human, UniProt P0A7C2 1-202 (Escherichia coli entry)); assay: yeast two-hybrid, lacZ expression in L40 cells
T1 construct: also called LexAbd-PKN; LexA-PKNN1

[2] = target: T2, Gal4 DNA-binding domain fused to PKNN1 (amino acid sequence 1-540 of PKN), pGBT9 (human, UniProt P04386 1-147 (Saccharomyces cerevisiae entry)); assay: yeast two-hybrid library screen, HIS3 and β-galactosidase
T2 construct: range 1-147; also called Gal4bd-PKN

[3] = target: T3, PKN purified from rat testis cytosol (rat, UniProt Q63433 2-946, limits assumed); assay: cell-based or functional assay
[4] = target: catalytic subunit of bovine heart PKA (bovine, UniProt P00517 2-351); assay: cell-based or functional assay
[5] = target: T3, PKN purified from rat testis cytosol; assay: apparent Ki from kinase kinetics with δPKC peptide substrate; double-reciprocal plots and secondary plot of Km/Vmax
[6] = target: T4, PKNN2 (N-terminal region of PKN, amino acid sequence 1-474), 35S-labeled, in vitro translated (human, UniProt Q16512 1-474, [35S]methionine label); assay: GST pull-down of 35S-labeled in vitro translated PKNN2
T4 construct: also called in vitro translated PKN-N; PKN prepared by in vitro translation

[7] = target: RhoA^Val14CLVL^- fused to the VP16 activation domain (human, UniProt P06492 413-490; P61586 1-189); assay: yeast two-hybrid with truncated PKN

T4 sequence (Q16512 1-474): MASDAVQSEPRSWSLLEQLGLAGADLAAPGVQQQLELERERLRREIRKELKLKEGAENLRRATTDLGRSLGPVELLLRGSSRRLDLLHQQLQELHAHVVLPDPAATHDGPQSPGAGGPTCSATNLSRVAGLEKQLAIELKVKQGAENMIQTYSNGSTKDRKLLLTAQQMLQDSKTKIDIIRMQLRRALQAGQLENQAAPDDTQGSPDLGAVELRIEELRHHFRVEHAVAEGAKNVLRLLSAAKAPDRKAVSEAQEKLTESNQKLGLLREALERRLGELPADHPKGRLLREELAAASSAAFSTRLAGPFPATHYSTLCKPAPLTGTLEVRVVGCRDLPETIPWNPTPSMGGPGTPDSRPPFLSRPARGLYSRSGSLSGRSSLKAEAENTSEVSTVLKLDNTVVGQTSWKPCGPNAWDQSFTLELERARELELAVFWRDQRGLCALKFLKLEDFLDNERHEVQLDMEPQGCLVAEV
T1 sequence (P0A7C2 other isoform, or with tags, fused parts or gaps limits assumed): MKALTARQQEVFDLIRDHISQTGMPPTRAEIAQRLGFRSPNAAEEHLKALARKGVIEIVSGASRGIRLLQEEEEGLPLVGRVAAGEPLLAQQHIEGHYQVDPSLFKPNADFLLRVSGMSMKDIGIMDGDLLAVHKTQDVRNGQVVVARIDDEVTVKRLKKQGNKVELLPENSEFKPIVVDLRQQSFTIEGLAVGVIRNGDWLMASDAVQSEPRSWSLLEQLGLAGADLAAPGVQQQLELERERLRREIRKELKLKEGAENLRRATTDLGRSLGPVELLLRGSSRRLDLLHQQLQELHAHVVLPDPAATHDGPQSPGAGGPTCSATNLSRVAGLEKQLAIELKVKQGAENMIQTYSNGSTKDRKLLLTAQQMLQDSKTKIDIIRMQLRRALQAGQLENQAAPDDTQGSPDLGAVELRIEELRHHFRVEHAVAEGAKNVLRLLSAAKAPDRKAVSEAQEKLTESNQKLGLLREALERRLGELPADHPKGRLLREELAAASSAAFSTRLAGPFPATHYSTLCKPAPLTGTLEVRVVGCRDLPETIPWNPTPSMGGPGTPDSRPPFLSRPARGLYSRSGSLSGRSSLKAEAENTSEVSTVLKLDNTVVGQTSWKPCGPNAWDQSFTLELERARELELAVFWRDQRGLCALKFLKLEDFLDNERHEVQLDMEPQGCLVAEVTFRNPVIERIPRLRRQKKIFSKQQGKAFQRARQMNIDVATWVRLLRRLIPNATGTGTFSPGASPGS

B1: VP16 transcription activation domain fused to the head-rod domain of NFM, pVP/NFMhr (other)
chain: MSYTLDSLGNPSAYRRVTETRSSFSRVSGSPSSGFRSQSWSRGSPSTVSSSYKRSMLAPRLAYSSAMLSSAESSLDFSQSSSLLNGGSGPGGDYKLSRSNEKEQLQGLNDRFAGYIEKVHYLEQQNKEIEAEIQALRQKQASHAQLGDAYDQEIRELRATLEMVNHEKAQVQLDSDHLEEDIHRLKERFEEEARLRDDTEAAIRALRKDIEEASLVKVELDKKVQSLQDEVAFLRSNHEEEVADLLAQIQASHITVERKDYLKTDISTALKEIRSQLESHSDQNMHQAEEWFKCRYAKLTEAAEQNKEAIRSAKEEIAEYRRQLQSKSIELESVRGTKESLERQLSDIEERHNHDLSSYQDTIQQLENELRGTKWEMARHLREYQDLLNVKMALDIEIAAYRKLLEGEETR
notes: range 1-411
binding result [1]: binds

B2: VP16 transcription activation domain fused to the head-rod domain of human NFL (amino acid sequence 1-349), pVP/NFL#21 (other)
chain: MSSFSYEPYYSTSYKRRYVETPRVHISSVRSGYSTARSAYSSYSAPVSSSLSVRRSYSSSSGSLMPSLENLDLSQVAAISNDLKSIRTQEKAQLQDLNDRFASFIERVHELEQQNKVLEAELLVLRQKHSEPSRFRALYEQEIRDLRLAAEDATNEKQALQGEREGLEETLRNLQARYEEEVLSREDAEGRLMEARKGADEAALARAELEKRIDSLMDEISFLKKVHEEEIAELQAQIQYAQISVEMDVTKPDLSAALKDIRAQYEKLAAKNMQNAEEWFKSRFTVLTESAAKNTDAVRAAKDEVSESRRLLKAKTLEIEACRGMNEALEKQLQELEDKQNADISAMQD
notes: range 1-349
binding result [1]: binds

B3: Gal4 activation domain fusion of library clone #21 (head-rod domain of human NFL, amino acid sequence 1-349), pGAD10-NFL#21 (other, UniProt P07196 1-349, looked up, not shown: large carriers)
chain: MSSFSYEPYYSTSYKRRYVETPRVHISSVRSGYSTARSAYSSYSAPVSSSLSVRRSYSSSSGSLMPSLENLDLSQVAAISNDLKSIRTQEKAQLQDLNDRFASFIERVHELEQQNKVLEAELLVLRQKHSEPSRFRALYEQEIRDLRLAAEDATNEKQALQGEREGLEETLRNLQARYEEEVLSREDAEGRLMEARKGADEAALARAELEKRIDSLMDEISFLKKVHEEEIAELQAQIQYAQISVEMDVTKPDLSAALKDIRAQYEKLAAKNMQNAEEWFKSRFTVLTESAAKNTDAVRAAKDEVSESRRLLKAKTLEIEACRGMNEALEKQLQELEDKQNADISAMQD
notes: range 1-349; also called clone#21 protein; plasmid #21
binding result [2]: binds

B4: PKN (39-53) peptide (peptide)
peptide: RERLRREIRKELKLK
IC50 (inhibition of δPKC peptide phosphorylation by PKN) [3]: ~80 µM
IC50 (inhibition of Kemptide phosphorylation by PKA) [4]: ≥ 1000 µM
Ki [5]: 41 µM

B5: GST-HuActSkl (604-719) (other, human, UniProt P35609 604-719, looked up)
chain: MDELRTKWDKVKQLVPIRDQSLQEELARQHANERLRRQFAAQANAIGPWIQNKMEEIARSSIQITGALEDQMNQLKQYEHNIINYKNNIDKLEGDHQLIQEALVFDNKHTNYTMEH
notes: not shown: glutathione S-transferase (GST) tag
binding result [6]: no binding

B6: GST-HuActSkl (837-894) (other, human, UniProt P35609 837-894, looked up)
chain: ILASDKPYILAEELRRELPPDQAQYCIKRMPAYSGPGSVPGALDYAAFSSALYGESDL
notes: as for B5
binding result [6]: no binding

B7: truncated PKN, amino acid sequence 3-135, two-hybrid fusion (other)
chain: SDAVQSEPRSWSLLEQLGLAGADLAAPGVQQQLELERERLRREIRKELKLKEGAENLRRATTDLGRSLGPVELLLRGSSRRLDLLHQQLQELHAHVVLPDPAATHDGPQSPGAGGPTCSATNLSRVAGLEKQL
notes: also called PKN 3-135
binding result [7]: binds
